Experiment [1] has as its target RSV L-Twin-Strep-tag + P-his (human respiratory syncytial virus, UniProt P28887 1-2165; P03421 1-241). Put plainly: BLI.
The target in experiment [2] is T1, RSV L-Twin-Strep-tag + P-his (human respiratory syncytial virus, UniProt P28887 1-2165; P03421 1-241).
T1 construct: RSV large polymerase L, codon-optimized; RSV phosphoprotein P, codon-optimized; L as in m21; also called L-P^-his; L-P complexes; source: Sf9, baculovirus, purified (Strep-Trap XT, SEC Superose 6); not shown: Twin-Strep-tag, C-terminal, kept; His6, C-terminal, kept
The experiment in a line: BLI; Octet RED 384, 25°C; L-Twin-Strep-tag + P-his loaded on Ni-NTA sensors; two-fold dilutions of GST-Rab11a (with 1 mM GTP) or GST-Rab11a CA from 50 nM to 3.2 µM; association 60 min to steady state, dissociation 5 min; apparent KD from steady-state responses, one-site model, double referenced. The conditions noted are these: both partners purified.

Numbering of substitutions follows the chain as printed. Names and notes keep the numbering of the source.

B1: GST-Rab11a(Q70L) CA (natural protein)
chain: MGTRDDEYDYLFKVVLIGDSGVGKSNLLSRFTRNEFNLESKSTIGVEFATRSIQVDGKTIKAQIWDTAGLERYRAITSAYYRGAVGALLVYDIAKHLTYENVERWLKELRDHADSNIVIMLVGNKSDLRHLRAVPTDEARAFAEKNGLSFIETSALDSTNVEAAFQTILTEIYRIVSQKQMSDRRENDMSPSNNVVPIHVPPTTENKPKVQCCQNI
In the case of B1, in experiment [1], the Kd turned out to be 1.2 µM.

B2: GST-Rab11a WT (natural protein, human, UniProt P62491 1-216, looked up)
chain: B1 chain with L70Q
notes: human Rab11a; pGEX 4T-3; Used with or without 1 mM GTP; also called GST-Rab11a wild-type; source: E. coli BL21, purified (Glutathione Sepharose 4B, SEC Superdex 200); not shown: GST, N-terminal, kept
Take B2: the Kd in experiment [2] turned out to be 0.3 µM.

The values above are taken from paper PMC13456277, “Direct interaction between RSV polymerase L and active Rab11a mediates viral ribonucleoprotein transport to assembly sites” (PLOS Pathogens, 2026).
